# Source: the supplement of paper PMC10724198
# ± gives the standard deviation of the averaged measurements.
# What was measured:
# Saccharomyces cerevisiae [1] = experiment: protein stability index of tFT-peptide fusion (C-terminal peptide) (PSI (0-1 scale)); higher = more stable (slower turnover)
# Protocol: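 MPS profiling in S. cerevisiae of the tFT-X12 degron library: putative degron peptides plus stable controls, 12 aa, fused to the C-terminus of a sfGFP-mCherry timer. Cells are FACS-sorted into 8 mCherry/sfGFP bins and deep-sequenced. PSI runs from 0 (unstable) to 1 (stable). Backgrounds are wild type, das1Δ and doa10Δ at 30 °C, and wild type, das1Δ, cdc34-1 and cdc53-1 at 37 °C; 2-3 technical replicates each.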
# Saccharomyces cerevisiae [2] = experiment: as above; settings: genetic background: wild type; temperature: 30 C
# [3] = genetic background: cdc34-1, temperature: 37 C
# [4] = genetic background: cdc53-1, temperature: 37 C
# [5] = genetic background: das1 deletion, temperature: 30 C
# [6] = genetic background: das1 deletion, temperature: 37 C
# [7] = genetic background: doa10 deletion, temperature: 30 C
# [8] = genetic background: wild type, temperature: 30 C
# [9] = genetic background: wild type, temperature: 37 C
# 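Also: PSI is a weighted mean of sequencing reads over stability bins, variants kept only with over 10 reads, mCherry proximal and sfGFP distal, peptide attached via GGGS linker.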
Sequence,protein stability index (Saccharomyces cerevisiae [1]; [3]),protein stability index (Saccharomyces cerevisiae [1]; [4]),protein stability index (Saccharomyces cerevisiae [1]; [5]),protein stability index (Saccharomyces cerevisiae [1]; [6]),protein stability index (Saccharomyces cerevisiae [1]; [7]),protein stability index (Saccharomyces cerevisiae [1]; [8]),protein stability index (Saccharomyces cerevisiae [1]; [9]),protein stability index (Saccharomyces cerevisiae [2])
GFFFLFFVSAFI,0.368 ± 0.021,0.4553 ± 0.0027,0.327 ± 0.034,0.485 ± 0.011,0.2992 ± 0.0012,0.311 ± 0.064,0.445 ± 0.0067,0.407 ± 0.026
GFFFYFVLFGLS,0.34 ± 0.061,0.409 ± 0.0011,0.29 ± 0.015,0.47314 ± 0.00013,0.285 ± 0.011,0.268 ± 0.018,0.446 ± 0.016,0.409 ± 0.0059
GFISKLIIKLAA,0.542 ± 0.0055,0.566 ± 0.032,0.43 ± 0.025,0.5511 ± 0.0043,0.269 ± 0.0091,0.319 ± 0.016,0.462 ± 0.026,0.435 ± 0.0059
GFVLMLLVRFEL,0.299 ± 0.037,0.416 ± 0.0054,0.309 ± 0.031,0.474 ± 0.015,0.328 ± 0.011,0.294 ± 0.046,0.465 ± 0.035,0.419 ± 0.034
GGFRVLLWCVVW,0.19 ± 0.046,0.3237 ± 0.0018,0.214 ± 0.041,0.399 ± 0.0044,0.184 ± 0.0074,0.208 ± 0.03,0.35 ± 0.028,0.28 ± 0.016
GGGEGVVWVRLG,0.537 ± 0.054,0.72 ± 0.011,0.637 ± 0.0046,0.737 ± 0.009,0.116 ± 0.012,0.131 ± 0.0021,0.19 ± 0.01,0.272 ± 0.018
GGGWCEMLIVVG,0.506 ± 0.018,0.512 ± 0.026,0.358 ± 0.029,0.5495 ± 0.0039,0.324 ± 0.013,0.367 ± 0.03,0.542 ± 0.017,0.441 ± 0.018
GGRFVWIVRAVG,0.6323 ± 0.0024,0.727 ± 0.017,0.611 ± 0.021,0.73 ± 0.022,0.233 ± 0.004,0.272 ± 0.037,0.568 ± 0.057,0.471 ± 0.014
GGRHYGILDLSL,0.638 ± 0.063,0.708 ± 0.013,0.677 ± 0.019,0.719 ± 0.024,0.6927 ± 0.0056,0.677 ± 0.025,0.6992 ± 0.00076,0.7174 ± 0.0062
GGVSPRSSMDLL,0.6849 ± 0.0066,0.764 ± 0.01,0.646 ± 0.023,0.736 ± 0.029,0.648 ± 0.0075,0.645 ± 0.012,0.7319 ± 0.0035,0.434 ± 0.21
GGVWVLGVAVVW,0.114 ± 0.014,0.132 ± 0.029,0.246 ± 0.019,0.349 ± 0.017,0.207 ± 0.0064,0.236 ± 0.023,0.275 ± 0.0036,0.348 ± 0.062
GGWSFSSLWKIA,0.625 ± 0.066,0.817 ± 0.015,0.765 ± 0.038,0.8379 ± 0.0033,0.126 ± 0.013,0.127 ± 0.019,0.205 ± 0.012,0.301 ± 0.09
GIGVVWLDVFKT,0.4 ± 0.0057,0.499 ± 0.024,0.321 ± 0.035,0.537 ± 0.011,0.301 ± 0.024,0.304 ± 0.017,0.504 ± 0.035,0.426 ± 0.017
GIKLNVVYILLG,0.486 ± 0.045,0.544 ± 0.025,0.377 ± 0.03,0.644 ± 0.017,0.34 ± 0.041,0.35 ± 0.05,0.536 ± 0.0097,0.482 ± 0.072
GKHILLISLNIT,0.281 ± 0.024,0.395 ± 0.067,0.252 ± 0.045,0.5 ± 0.013,0.246 ± 0.022,0.251 ± 0.046,0.455 ± 0.02,0.351 ± 0.0065
GKVSSFVLFHIS,0.649 ± 0.039,0.761 ± 0.033,0.622 ± 0.031,0.7502 ± 0.0042,0.202 ± 0.024,0.234 ± 0.021,0.475 ± 0.0066,0.301 ± 0.013
GLAVLSWLYIEL,0.557 ± 0.022,0.57162 ± 0.00039,0.457 ± 0.031,0.598 ± 0.013,0.445 ± 0.019,0.461 ± 0.014,0.57036 ± 0.0001,0.487 ± 0.013

Sequence,protein stability index (Saccharomyces cerevisiae [1]; [3]),protein stability index (Saccharomyces cerevisiae [1]; [4]),protein stability index (Saccharomyces cerevisiae [1]; [5]),protein stability index (Saccharomyces cerevisiae [1]; [6]),protein stability index (Saccharomyces cerevisiae [1]; [7]),protein stability index (Saccharomyces cerevisiae [1]; [8]),protein stability index (Saccharomyces cerevisiae [1]; [9]),protein stability index (Saccharomyces cerevisiae [2])
GLCFRVCIWVFV,0.176 ± 0.0029,0.284 ± 0.024,0.206 ± 0.025,0.364 ± 0.0058,0.103 ± 0.016,0.125 ± 0.025,0.218 ± 0.0086,0.195 ± 0.041
GLGWLLFVVERV,0.457 ± 0.019,0.499 ± 0.046,0.359 ± 0.037,0.552 ± 0.011,0.34 ± 0.018,0.345 ± 0.025,0.511 ± 0.027,0.453 ± 0.032
GLSLLLLWFKVC,0.174 ± 0.0095,0.36 ± 0.0093,0.307 ± 0.027,0.463 ± 0.014,0.0902 ± 0.0054,0.104 ± 0.025,0.0839 ± 0.013,0.169 ± 0.017
GLSVFFFVGFIF,0.38 ± 0.091,0.452 ± 0.033,0.339 ± 0.022,0.526 ± 0.021,0.306 ± 0.017,0.322 ± 0.02,0.521 ± 0.031,0.418 ± 0.047
GLVSCWIDPSMA,0.697 ± 0.0081,0.77 ± 0.032,0.635 ± 0.0088,0.73 ± 0.025,0.597 ± 0.021,0.628 ± 0.03,0.708 ± 0.023,0.714 ± 0.04
GPCRPWIVVYAG,0.566 ± 0.036,0.595 ± 0.042,0.357 ± 0.034,0.5831 ± 0.0018,0.295 ± 0.022,0.333 ± 0.018,0.512 ± 0.0063,0.475 ± 0.066
GPWVIFSHLLLT,0.459 ± 0.037,0.49 ± 0.017,0.405 ± 0.017,0.546 ± 0.013,0.258 ± 0.0084,0.249 ± 0.02,0.3963 ± 0.0027,0.404 ± 0.023
GRFGVGVVFRLA,0.669 ± 0.038,0.72 ± 0.016,0.637 ± 0.028,0.719 ± 0.01,0.347 ± 0.032,0.393 ± 0.027,0.6096 ± 0.0043,0.456 ± 0.043
GRGRGGRWGRLC,0.642 ± 0.05,0.739 ± 0.016,0.646 ± 0.0085,0.75048 ± 0.00029,0.201 ± 0.023,0.215 ± 0.024,0.476 ± 0.023,0.269 ± 0.05
GRLRLGVLCGGV,0.611 ± 0.016,0.661 ± 0.014,0.469 ± 0.021,0.655 ± 0.018,0.454 ± 0.0071,0.472 ± 0.013,0.634 ± 0.017,0.529 ± 0.045
GRVFSSFFLYIS,0.051 ± 0.02,0.0556 ± 0.0033,0.112 ± 0.011,0.184 ± 0.011,0.14 ± 0.0057,0.0543 ± 0.017,0.0883 ± 0.017,0.0831 ± 0.0098
GRVYLLGLYMSF,0.453 ± 0.041,0.485 ± 0.026,0.306 ± 0.083,0.525 ± 0.064,0.3887 ± 0.0029,0.338 ± 0.026,0.481 ± 0.037,0.373 ± 0.0094
GSLGHCWFLFGV,0.59 ± 0.038,0.538 ± 0.011,0.539 ± 0.022,0.461 ± 0.0075,0.556 ± 0.064,0.538 ± 0.0098,0.475 ± 0.021,0.463 ± 0.016
GSLHVISVVGML,0.696 ± 0.012,0.709 ± 0.019,0.592 ± 0.016,0.695 ± 0.018,0.393 ± 0.0045,0.439 ± 0.018,0.595 ± 0.014,0.52 ± 0.034
GSVLWISCLIFC,0.157 ± 0.019,0.267 ± 0.0085,0.189 ± 0.035,0.349 ± 0.0061,0.1641 ± 0.0013,0.18 ± 0.027,0.347 ± 0.038,0.3 ± 0.026
GTHWARLGWLLA,0.607 ± 0.03,0.711 ± 0.036,0.619 ± 0.019,0.724 ± 0.022,0.161 ± 0.0026,0.176 ± 0.023,0.379 ± 0.033,0.227 ± 0.11
